Laboratory results: patent US20260125649A1, “MEDIUM COMPOSITION AND METHOD FOR CULTURING MESENCHYMAL STEM CELLS” (ACADEMIA SINICA, priority 2018, published 2026)

How the values were obtained:
HMGA2 = HMGA2 expression and nuclear translocation (Western blotting, immunofluorescence, qPCR); assay type: cell-based, human; settings: EpEX 3 μg/mL
Method: MSCs were treated with EpEX (3 μg/mL), and the expression of HMGA2 was detected by immunofluorescence staining. […] To detect the binding of HMGA2 to Oct4 promoters, cross-linked DNA was isolated and then amplified with specific primers by qPCR. […] The gene expression of HMGA2 is detected by qPCR. MSCs were treated with let-7 mimetic and then treated with EpEX (3 μg/mL) for 12 h. The protein abundance of HMGA2 was examined by Western blotting.
Total RNA was extracted using TRI reagent (Invitrogen, CA, USA), and 5 μg of total RNA was reverse transcribed using oligo (dT) primer (Fermentas, Glen Burnie, MD, USA) with SuperScript III reverse transcriptase (Invitrogen). Quantitative real time RT-PCR (qPCR) was performed on cDNA using the Light Cycler 480 SYBR Green I Master kit (Roche Applied Science, Indianapolis, IN) and the LightCycler480 System (Roche Applied Science). The gene expression levels of each sample were normalized to the expression levels of glyceraldehyde 3-phosphate dehydrogenase (GAPDH).
Western blotting was performed as previously described (Takahashi et al., 2003). Cells were lysed in lysis buffer (150 mM NaCl, 50 mM Tris-HCl (pH 7.4), 1% Nonidet P-40), containing a protease inhibitor mix (Roche Applied Science). […]

MSCs = experiment: Osteogenesis of MSCs by Alizarin Red S staining; assay type: cell-based, human
Method: Calcium precipitation was measured by Alizarin Red S (ARS) staining to probe the efficiency of osteogenesis. […] Quantification of osteogenesis, as measured by ARS staining, is shown for each group. MSCs were induced by osteogenetic medium and treated with EpEX at indicated doses. The gene expression of RUNX2 was examined by qPCR. […] ARS staining was performed to check the efficiency of osteogenesis. MSCs were pretreated with let-7 inhibitor and then treated with EpEX for 14 days during osteo-induction. ARS staining was performed to check the efficiency of osteogenesis. […] RUNX2 gene expression was measured by qPCR. MSCs were pretreated with let-7 inhibitor and induced by EpEX. RUNX2 gene expression was examined by qPCR. […] Upon EpEX stimulation, phosphorylation of EGFR-STAT3 signaling is induced and subsequently upregulates the level of Lin28 which inhibits let-7. When let-7 is inhibited, the transcription factor, HMGA2, is increased and binds to the promoters of Oct4 and Sox2. The EpEX-mediated increases of Oct4 and Sox2 can promote osteogenesis of MSCs during osteo-induction. […]
After 14 days of osteogenic differentiation, cells were fixed with ice-cold 70% ethanol at −20° C. for 1 h and then washed with PBS. […] For quantification, the cells were incubated with 1 mL of […] buffer for 1 h to extract ARS, and the O.D. at 550 nm was recorded.

B1: EpEX: extracellular domain of human EpCAM, 265 amino acids in length (SEQ ID NO: 2) (protein, listed as Homo sapiens)
chain: MAPPQVLAFGLLLAAATATFAAAQEECVCENYKLAVNCFVNNNRQCQCTSVGAQNTVICSKLAAKCLVMKAEMNGSKLGRRAKPEGALQNNDGLYDPDCDESGLFKAKQCNGTSMCWCVNTAGVRRTDKDTEITCSERVRTYWIIIELKHKAREKPYDSKSLRTALQKEITTRYQLDPKFITSILYENNVITIDLVQNSSQKTQNDVDIADVAYYFEKDVKGESLFHSKKMDLTVNGEQLDLDPGQTLIYYVDEKAPEFSMQGLK
level of HMGA2 (HMGA2): induced
HMGA2 nuclear translocation (HMGA2; Western blotting and immunofluorescent staining): induced
osteogenesis compared to controls (MSCs; EpEX treatment during osteo-induction, 14 days, ARS staining): 4 fold
calcium precipitation (ARS staining) (MSCs; EpEX, Day 14, vs non-treated controls): higher
